# Results as given in US20160305952A1 (ROCHE SEQUENCING SOLUTIONS, published 2016).
# Where no end group is shown, it is not given here.
# Target: T1, Tumor Necrosis Factor Alpha (human, UniProt P01375 77-233)
# T1 construct: also called TNFα; TNF-α
# Assay: peptide array, extension library, 3Z linker
# T1 sequence (P01375 77-233 limits assumed): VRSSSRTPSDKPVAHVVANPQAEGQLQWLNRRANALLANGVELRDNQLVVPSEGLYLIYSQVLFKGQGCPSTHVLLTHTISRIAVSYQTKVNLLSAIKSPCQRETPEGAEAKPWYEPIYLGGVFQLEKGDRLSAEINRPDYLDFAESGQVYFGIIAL
row,Binder,binding result
1,DGALYLFGN (also: array-bound via 3Z linker),binds
2,TSVTVYVNN (also: array-bound via 3Z linker),binds
3,QAAIAIFGG (also: array-bound via 3Z linker),binds
4,GGTAVFVNT (also: array-bound via 3Z linker),binds

# Target: T2, Prostate Specific Antigen (human, UniProt P07288 25-261)
# T2 construct: also called PSA
# Assay: peptide array, double substitution/deletion library
# T2 sequence (P07288 25-261 limits assumed): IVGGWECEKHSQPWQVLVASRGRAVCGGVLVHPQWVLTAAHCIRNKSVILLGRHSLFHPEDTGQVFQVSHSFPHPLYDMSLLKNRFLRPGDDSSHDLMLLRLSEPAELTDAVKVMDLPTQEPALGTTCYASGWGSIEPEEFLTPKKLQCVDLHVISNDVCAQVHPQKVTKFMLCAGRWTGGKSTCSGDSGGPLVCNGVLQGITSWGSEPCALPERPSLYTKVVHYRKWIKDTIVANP
row,Binder,binding result
1,GTDFEVYFPKI,binds
2,ALDWQVYAGFG,binds
3,GTGWEVHLGKG,binds

# Target: T3, streptavidin (UniProt P22629 37-163, limits assumed)
# T3 construct: amine-coupled to a CM5 chip for SPR; also called SA
# Assay: SPR, Biacore X100, streptavidin on CM5 chip, peptide in solution
# Description: A selection of streptavidin peptide binders listed in Table 15 were synthesized using standard column-based synthesis techniques by UW Biotechnology center (Madison, Wis.) or by Peptide2.0 (Chantilly, Va.) at 98-99% purity. Strep-tag II peptide NH2-[…]-COOH was purchased from IBA GmbH (Goettingen, Germany). Synthesized peptides were then characterized by Surface Plasmon Resonance (SPR) to identify binding characteristics including the association rate constant (kₛ), dissociation rate constant (kd), and equilibrium dissociation […] (kd/kₐ=KD). In one aspect, SPR experiments were performed by using Biacore X100 instrument (GE Healthcare). Preliminarily, 60 μl of 100 μg/ml streptavidin in 10 mM Na-acetate, pH5.0 was immobilized to flow cell 2 (Fc2) of a sensor chip CM5 (GE Healthcare) using Amine Coupling Kit (GE Healthcare) at 20° C. for 6 min. Peptide stock solutions were prepared at 5 or 10 mM concentration in water and diluted in HBS-EP+ (GE Healthcare) buffer before SPR experiments. Peptide binding was performed in a multiple kinetics mode using HBS-EP+ as a running buffer and 0.2 M NaCl, 10 mM NaOH or 10 mM HCl-glycine, […] as regeneration buffer. Binding kinetics parameters were calculated with Biacore X100 software.
# T3 sequence (P22629 37-163 limits assumed): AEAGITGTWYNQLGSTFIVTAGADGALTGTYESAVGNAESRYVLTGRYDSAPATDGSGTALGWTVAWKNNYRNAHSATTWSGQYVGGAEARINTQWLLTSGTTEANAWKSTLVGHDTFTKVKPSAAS
Binder,Kd [µM],koff [s⁻¹],kon [M⁻¹ s⁻¹]
"H-SAWSHPQFEK-OH (free peptide, C-terminal carboxylic acid; bought from IBA; also called Strep-tag II peptide; Strep-Tag II) [NH2-SAWSHPQFEK-COOH]",49.8,–,–
H-AFDYLAQYHGG-NH2 (free peptide) [NH2-AFDYLAQYHGG-amide],1.52,0.0354,23300
H-AFPDYLAEYHGG-NH2 (free peptide) [NH2-AFPDYLAEYHGG-amide],0.043,0.00128,30100
"H-WTHPQFEQK-OH (free peptide, C-terminal carboxylic acid) [NH2-WTHPQFEQK-COOH]",15.5,–,–
H-WTHPQFEQPKA-NH2 (free peptide) [NH2-WTHPQFEQPKA-amide],7.9,–,–
"H-NSFDDWLAKGG-OH (free peptide, C-terminal carboxylic acid) [NH2-NSFDDWLAKGG-COOH]",11.3,–,–
"H-ADYLAEYHGG-OH (free peptide, C-terminal carboxylic acid) [NH2-ADYLAEYHGG-COOH]",96,–,–

# Target: T1, Tumor Necrosis Factor Alpha
# Assay: peptide array, 5-mer library, 5Z linker
row,Binder,binding result
1,AIAIF (also: array-bound via 5Z linker),binds
2,TAVFV (also: array-bound via 5Z linker),binds
3,ALYLF (also: array-bound via 5Z linker),binds
4,VTVYV (also: array-bound via 5Z linker),binds

# Target: T4, Taq polymerase (UniProt P19821 1-832)
# Assay: peptide array, extension library, 3Z linker
# T4 sequence (P19821 whole entry): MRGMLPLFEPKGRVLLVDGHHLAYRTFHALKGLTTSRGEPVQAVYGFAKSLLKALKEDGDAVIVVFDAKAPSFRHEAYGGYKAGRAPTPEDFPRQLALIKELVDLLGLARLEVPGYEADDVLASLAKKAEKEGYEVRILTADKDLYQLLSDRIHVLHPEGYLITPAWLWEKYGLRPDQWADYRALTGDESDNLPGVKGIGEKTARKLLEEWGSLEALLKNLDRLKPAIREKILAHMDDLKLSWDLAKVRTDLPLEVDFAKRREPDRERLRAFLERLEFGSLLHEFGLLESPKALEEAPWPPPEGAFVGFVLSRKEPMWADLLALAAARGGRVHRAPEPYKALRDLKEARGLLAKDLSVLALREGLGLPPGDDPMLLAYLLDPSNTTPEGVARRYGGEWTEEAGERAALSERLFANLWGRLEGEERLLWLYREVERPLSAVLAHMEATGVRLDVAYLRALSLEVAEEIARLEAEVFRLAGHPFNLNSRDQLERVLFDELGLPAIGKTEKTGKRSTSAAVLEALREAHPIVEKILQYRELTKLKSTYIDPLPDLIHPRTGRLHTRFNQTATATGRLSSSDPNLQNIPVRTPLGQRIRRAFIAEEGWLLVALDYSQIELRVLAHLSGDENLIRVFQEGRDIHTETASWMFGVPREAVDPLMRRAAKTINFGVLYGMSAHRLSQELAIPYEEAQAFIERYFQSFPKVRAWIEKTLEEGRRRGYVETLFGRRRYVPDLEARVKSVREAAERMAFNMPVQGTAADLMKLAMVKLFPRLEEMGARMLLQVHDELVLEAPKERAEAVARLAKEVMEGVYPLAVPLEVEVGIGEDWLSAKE
row,Binder,binding result
1,GQHEFSFGT (also: array-bound via 3Z linker),binds
2,YEHEFSFGT (also: array-bound via 3Z linker),binds
3,GEHYFEFQQ (also: array-bound via 3Z linker),binds
4,GEHYFEFAP (also: array-bound via 3Z linker),binds
5,QQHYFEFEK (also: array-bound via 3Z linker),binds
6,FGWKAEKFN (also: array-bound via 3Z linker),binds
7,RSWDWDWKK (also: array-bound via 3Z linker),binds
8,KKWDWDWKW (also: array-bound via 3Z linker),binds
9,YKWKEDWKW (also: array-bound via 3Z linker),binds
10,YEWTKVKNY (also: array-bound via 3Z linker),binds
11,YSWTKVKDY (also: array-bound via 3Z linker),binds

# Target: T2, Prostate Specific Antigen
# Assay: peptide array, 5-mer library, 5Z linker
row,Binder,binding result
1,FEVYL (also: array-bound via 5Z linker),binds
2,WTVYA (also: array-bound via 5Z linker),binds
3,WEVHL (also: array-bound via 5Z linker),binds
4,RSILY (also: array-bound via 5Z linker),binds

# Target: T2, Prostate Specific Antigen
# Assay: peptide array, extension library, 3Z linker
row,Binder,binding result
1,NGFEVYLPG (also: array-bound via 3Z linker),binds
2,GQFEVYLPG (also: array-bound via 3Z linker),binds
3,TDFEVYLPK (also: array-bound via 3Z linker),binds
4,SEWTVYAGN (also: array-bound via 3Z linker),binds
5,GDWTVYAGN (also: array-bound via 3Z linker),binds
6,TGWEVHLGK (also: array-bound via 3Z linker),binds
7,GQWEVHLGK (also: array-bound via 3Z linker),binds
8,SCRSILYGQ (also: array-bound via 3Z linker),binds
9,SCRSILYGP (also: array-bound via 3Z linker),binds
10,SCRSILYND (also: array-bound via 3Z linker),binds

# Target: T4, Taq polymerase
# Assay: peptide array, 5-mer library, 5Z linker
row,Binder,binding result
1,HEFSF (also: array-bound via 5Z linker),binds
2,HYFEF (also: array-bound via 5Z linker),binds
3,WKAEK (also: array-bound via 5Z linker),binds
4,WDWDW (also: array-bound via 5Z linker),binds
5,WKEDW (also: array-bound via 5Z linker),binds
6,WTKVK (also: array-bound via 5Z linker),binds
